Holding throughout (test): cell-based or functional assay
For assay [1], the target named is murine IL-12 receptor on mouse CD14- PBMC (mouse) (UniProt P97378).
Assay [2] addresses rat IL-12 receptor on rat PBMC (rat).
Assay [3] deals with human IL-12 receptor on human CD14- PBMC (human, UniProt Q99665 24-862).
Chain of human IL-12 receptor on human CD14- PBMC (Q99665 24-862): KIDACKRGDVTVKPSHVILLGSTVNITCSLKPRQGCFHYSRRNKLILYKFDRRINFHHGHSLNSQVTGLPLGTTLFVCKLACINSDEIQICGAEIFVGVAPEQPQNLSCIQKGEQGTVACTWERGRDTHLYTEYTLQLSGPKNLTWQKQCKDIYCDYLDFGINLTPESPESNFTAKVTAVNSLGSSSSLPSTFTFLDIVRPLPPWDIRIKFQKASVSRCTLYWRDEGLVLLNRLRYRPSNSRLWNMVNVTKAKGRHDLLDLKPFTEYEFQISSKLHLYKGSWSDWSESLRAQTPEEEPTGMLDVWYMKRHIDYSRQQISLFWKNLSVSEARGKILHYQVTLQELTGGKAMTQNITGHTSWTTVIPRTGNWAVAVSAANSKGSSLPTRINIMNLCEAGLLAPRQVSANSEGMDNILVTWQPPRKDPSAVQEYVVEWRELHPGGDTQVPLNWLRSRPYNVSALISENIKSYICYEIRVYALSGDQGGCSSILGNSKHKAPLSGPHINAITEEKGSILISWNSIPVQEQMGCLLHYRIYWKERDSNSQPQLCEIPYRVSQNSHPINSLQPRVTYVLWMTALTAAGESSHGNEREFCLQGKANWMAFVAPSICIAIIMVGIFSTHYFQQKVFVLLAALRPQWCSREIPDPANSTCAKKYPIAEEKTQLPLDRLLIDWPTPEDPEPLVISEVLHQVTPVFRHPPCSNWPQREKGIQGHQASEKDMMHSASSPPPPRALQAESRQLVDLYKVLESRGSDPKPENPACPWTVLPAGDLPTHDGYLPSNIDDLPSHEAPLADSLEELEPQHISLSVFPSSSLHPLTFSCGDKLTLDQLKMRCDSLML

Chain of murine IL-12 receptor on mouse CD14- PBMC (mouse) (P97378 24-874): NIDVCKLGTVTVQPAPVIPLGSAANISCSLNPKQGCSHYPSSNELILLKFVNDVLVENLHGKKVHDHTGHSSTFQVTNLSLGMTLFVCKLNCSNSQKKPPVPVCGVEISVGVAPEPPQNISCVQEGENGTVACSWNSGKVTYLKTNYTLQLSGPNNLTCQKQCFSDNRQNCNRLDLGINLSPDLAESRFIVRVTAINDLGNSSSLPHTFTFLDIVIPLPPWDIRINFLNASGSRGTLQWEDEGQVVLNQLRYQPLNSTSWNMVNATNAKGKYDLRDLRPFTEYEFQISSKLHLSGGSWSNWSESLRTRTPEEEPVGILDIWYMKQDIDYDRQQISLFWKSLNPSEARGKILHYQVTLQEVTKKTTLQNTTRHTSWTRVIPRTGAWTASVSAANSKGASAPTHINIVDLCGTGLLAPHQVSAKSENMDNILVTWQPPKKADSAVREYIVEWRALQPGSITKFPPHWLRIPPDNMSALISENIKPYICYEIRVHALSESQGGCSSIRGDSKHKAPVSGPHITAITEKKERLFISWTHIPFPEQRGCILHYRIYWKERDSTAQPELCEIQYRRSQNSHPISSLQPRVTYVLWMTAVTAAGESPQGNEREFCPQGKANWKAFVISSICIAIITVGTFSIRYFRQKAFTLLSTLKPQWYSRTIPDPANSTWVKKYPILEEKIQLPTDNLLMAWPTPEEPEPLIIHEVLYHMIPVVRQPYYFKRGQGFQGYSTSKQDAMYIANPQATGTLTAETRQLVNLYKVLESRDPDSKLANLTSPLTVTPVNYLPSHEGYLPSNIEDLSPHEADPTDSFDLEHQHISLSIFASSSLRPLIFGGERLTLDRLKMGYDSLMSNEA

B1: recombinant human IL-12 (ligand)
chain 1: RNLPVATPDPGMFPCLHHSQNLLRAVSNMLQKARQTLEFYPCTSEEIDHEDITKDKTSTVEACLPLELTKNESCLNSRETSFITNGSCLASRKTSFMMALCLSSIYEDLKMYQVEFKTMNAKLLMDPKRQIFLDQNMLAVIDELMQALNFNSETVPQKSSLEEPDFYKTKIKLCILLHAFRIRAVTIDRVMSYLNAS
chain 2: IWELKKDVYVVELDWYPDAPGEMVVLTCDTPEEDGITWTLDQSSEVLGSGKTLTIQVKEFGDAGQYTCHKGGEVLSHSLLLLHKKEDGIWSTDILKDQKEPKNKTFLRCEAKNYSGRFTCWWLTTISTDLTFSVKSSRGSSDPQGVTCGAATLSAERVRGDNKEYEYSVECQEDSACPAAEESLPIEVMVDAVHKLKYENYTSSFFIRDIIKPDPPKNLQLKPLKNSRQVEVSWEYPDTWSTPHSYFSLTFCVQVQGKSKREKKDRVFTDKTSATVICRKNASISVRAQDRYYSSSWSEWASVPCS
modifications: glycosylated (produced in CHO cells)
As for B1, the EC50 for stimulating IFN-γ secretion from PBMC (ELISA) in assay [1] and in assay [2] was over 1 nM each time. Moreover, the “EC50 for stimulating IFN-γ secretion from CD14- PBMC (ELISA, 16 hours)” value in assay [3] was 0.00251 nM.
